Our source for the Kd values is PMC3230590, “Structure of the Bro1 Domain Protein BROX and Functional Analyses of the ALIX Bro1 Domain in HIV-1 Budding” (PLoS ONE, 2011).

For assay [1], the target named is CHMP4B 205-224 (Homo sapiens) (UniProt Q9H444). Conditions: cited from earlier work.
Another assay addresses T1, human BROX(1-401) (human, UniProt Q5VW32 1-401).
T1 construct: BROX, human, residues 1-401; lacks the 10 C-terminal residues 402-411 with the farnesylated Cys408; Residues of the vector may remain after TEV cleavage (surmise); also called wild type BROX; recombinant human BROX; not shown: His6, N-terminal, cleaved
T1 sequence (looked up): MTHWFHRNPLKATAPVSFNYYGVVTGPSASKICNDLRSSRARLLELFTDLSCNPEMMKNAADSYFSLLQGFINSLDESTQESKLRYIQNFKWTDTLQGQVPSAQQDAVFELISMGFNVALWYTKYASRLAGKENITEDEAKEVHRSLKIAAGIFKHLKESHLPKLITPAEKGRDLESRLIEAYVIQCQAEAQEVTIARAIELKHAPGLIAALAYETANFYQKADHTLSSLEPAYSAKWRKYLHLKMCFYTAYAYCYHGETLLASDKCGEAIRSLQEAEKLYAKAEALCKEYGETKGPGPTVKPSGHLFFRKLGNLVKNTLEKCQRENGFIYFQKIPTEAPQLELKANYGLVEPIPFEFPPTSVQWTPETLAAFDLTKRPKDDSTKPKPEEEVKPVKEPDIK
Put plainly: SPR; Biacore 2000; CM5 chip with amine-coupled anti-GST antibody capturing GST-CHMP4B(205-224) or GST alone from crude E. coli lysates; pure BROX proteins injected in triplicate, 1.5-fold dilution series from 400 µM; equilibrium responses fit to 1:1 isotherms. Conditions: both partners purified. On the technique in general: In SPR one partner is held on a chip, and binding of the other changes the refractive index at the surface.

Broadly, the Kd is the equilibrium constant for the complex coming apart.

For ALIX Bro1 (from UniProt Q8WUM4), the Kd in assay [1] is 48 µM.

B1: GST-CHMP4B(205-224) (domain or fragment, UniProt Q9H444 205-224, looked up)
chain: KKKEEEDDDMKELENWAGSM
notes: also called C-terminal fragment from CHMP4B; source: E. coli, captured from crude expression lysates on an anti-GST antibody sensor chip
In the assay with human BROX(1-401), B1 displayed a dissociation constant Kd of 98 ± 22 µM.
